Assays:
Assay in all cases: potentiometry
Settings in all cases: 25 °C; I = 0.1 M (KNO3); samples in 96 mM KNO3/4 mM HNO3; none (96 mM KNO3/4 mM HNO3); Free peptide, no metal, under argon
[1] = biological target: Asp3 (position 3, ---RHDSG---)
[2] = biological target: His2 (position 2, ----RHDSG--)
[3] = biological target: Nterm1 (position 1, -----RHDSG-)

B1: Amyloid-beta 5-9 peptide (Abeta5-9), Arg-His-Asp-Ser-Gly-NH2 (Homo sapiens (synthetic peptide)) (peptide)
chain: RHDSG
For B1, the pKa [1] was 3.17, the pKa [2] was 6.13 and the pKa [3] was 7.37.

Reference: paper PMC8693174
